# Test results: patent US20220380459A1 (DRAGONFLY THERAPEUTICS, published 2022)
# Positions count from the first letter of the chain named.
# B1: ADI-11835 Fab (Fab, V domains shown)
# VH: QLQLQESGPGLVKPSETLSLTCTVSGGSISSTDYYWGWIRQPPGKGLEWIGSIGYSGTYYNPSLKSRVTISVDTSKNQFSLKLSSVTAADTAVYYCARETAHDVHGMDVWGQGTTVTVSS
# VL: EIVLTQSPATLSLSPGERATLSCRASHSVYSYLAWYQQKPGQAPRLLIYDASNRATGIPARFSGSGSGTDFTLTISSLEPEDFAVYYCQQYDNLPTFGGGTKVEIK
# notes: Fab fragment; also called Ab10; I35
# B2: ADI-10157 Fab (Fab, V domains shown)
# VH: QVQLQESGPGLVKPSETLSLTCTVSGGSISSYYWSWIRQPPGKGLEWIGSIYYSGSTNYNPSLKSRVTISVDTSKNQFSLKLSSVTAADTAVYYCARVGGVYSTIETYGMDVWGQGTTVTVSS
# VL: EIVMTQSPATLSVSPGERATLSCRASQSVSSNLAWYQQKPGQAPRLLIYGASTRATGIPARFSGSGSGTEFTLTISSLQSEDFAVYYCQQYTVYPPTFGGGTKVEIK
# notes: Fab fragment; also called Ab13
# B3: ADI-11802 Fab (Fab, V domains shown)
# VH: QVQLVQSGAEVKKPGASVKVSCKASGYTFSGYYMHWVRQAPGQGLEWMGMINPYGGSTRYAQKFQGRVTMTRDTSTSTVYMELSSLRSEDTAVYYCAREAADGFVGERYFDLWGRGTLVTVSS
# VL: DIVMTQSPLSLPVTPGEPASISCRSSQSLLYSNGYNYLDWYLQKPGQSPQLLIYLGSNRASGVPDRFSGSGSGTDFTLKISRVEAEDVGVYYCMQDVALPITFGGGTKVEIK
# notes: Fab fragment; also called Ab23
# B4: ADI-10173 Fab (Fab, V domains shown)
# VH: B3 VH with S30T, G31S, M50I, Y54S, R59T
# VL: not shown
# notes: Fab fragment; also called Ab22
# B5: ADI-11819 Fab (Fab, V domains shown)
# VH: EVQLVESGGGLVKPGGSLRLSCAASGFTFSSYAMSWVRQAPGKGLEWVSSISSSSEGIYYADSVKGRFTISRDNAKNSLYLQMNSLRAEDTAVYYCAREGGPYYDSSGYFVYYGMDVWGQGTTVTVSS
# VL: DIQMTQSPSTLSASVGDRVTITCRASNSISSWLAWYQQKPGKAPKLLIYEASSTKSGVPSRFSGSGSGTEFTLTISSLQPDDFATYYCQQYDDLPTFGGGTKVEIK
# notes: Fab fragment; also called Ab8
# B6: ADI-10159 Fab (Fab, V domains shown)
# VH: EVQLVESGGGLVQPGGSLRLSCAASGFTFSSYGMSWVRQAPGKGLEWVANIKQDGSEKYYVDSVKGRFTISRDNAKNSLYLQMNSLRAEDTAVYYCAREGGPYYDSSGYFVYYGMDVWGQGTTVTVSS
# VL: B5 VL with N27Q, E50D, T54L, K55E, D92E, D93S, L94F
# notes: Fab fragment; also called Ab1; G59
# B7: ADI-11830 Fab (Fab, V domains shown)
# VH: EVQLVESGGGLVQPGGSLRLSCAASGFTFSSYWMSWVRQAPGKGLEWVANINTDGSEVYYVDSVKGRFTISRDNAKNSLYLQMNSLRAEDTAVYYCARDVGPGIAYQGHFDYWGQGTLVTVSS
# VL: DIQMTQSPSSLSASVGDRVTITCRASQVIYSYLNWYQQKPGKAPKLLIYAASSLKSGVPSRFSGSGSGTDFTLTISSLQPEDFATYYCQQVYDTPLTFGGGTKVEIK
# notes: Fab fragment; also called Ab9
# B8: ADI-10163 Fab (Fab, V domains shown)
# VH: QVQLQESGPGLVKPSQTLSLTCTVSGGSISSGGYYWSWIRQHPGKGLEWIGSIYYSGSTYYNPSLKSRVTISVDTSKNQFSLKLSSVTAADTAVYYCARDRLDYSYNYGMDVWGQGTTVTVSS
# VL: B7 VL with V28S, Y30S, A50G, K55Q, D93S, T94A, L96F
# notes: Fab fragment; also called Ab17
# B9: ADI-11812 Fab (Fab, V domains shown)
# VH: QVQLVQSGAEVKKPGASVKVSCKASGYTFEIYYMHWVRQAPGQGLEWMGIINPSSGSTVYAQKFQGRVTMTRDTSTSTVYMELSSLRSEDTAVYYCARGAGYDDEDMDVWGKGTTVTVSS
# VL: B7 VL with L11V, V28G, Y30D, Y32W, N34A, K55Q, V91A, Y92H, D93S, T94Y
# notes: Fab fragment; also called Ab24
# B10: ADI-10177 Fab (Fab, V domains shown)
# VH: EVQLVESGGGLVQPGGSLRLSCAASGFTFSSYWMSWVRQAPGKGLEWVANIKQDGSEKYYVDSVKGRFTISRDNAKNSLYLQMNSLRAEDTAVYYCARPLNAGELDVWGQGTMVTVSS
# VL: DIQMTQSPSTLSASVGDRVTITCRASQSISSWLAWYQQKPGKAPKLLIYEASSLESGVPSRFSGSGSGTEFTLTISSLQPDDFATYYCQQLESYPLTFGGGTKVEIK
# notes: Fab fragment; also called Ab2
# Target: T1, deglycosylated V domain of human CD33 (human, UniProt P20138 18-139, limits assumed, N-glycans removed by PNGase)
# T1 construct: V domain deglycosylated by PNGase before testing; also called deglycosylated V CD33
# Assay: SPR, Fab captured, 37C
# Protocol: (§1) Kinetics and affinity of a series of Fab fragments of anti-CD33 antibodies with different CD33 variants (human CD33 ECD, cyno CD33 ECD, V-domain of human CD33, C-domain or human CD33 and selected CD33 SNPs) were assessed by surface plasmon resonance using Biacore 8K instrument (GE Healthcare). Anti-Fab antibody was immobilized on a CMS chip using standard amine coupling chemistry. CD33 FABs were captured on the anti-Fab chip at a density of ˜100 RU. Solutions containing different concentrations of soluble monomeric CD33 or its domains were injected over the captured FABs and control surfaces at 30 μl/min at 37° C. Surfaces were regenerated between cycles by quick injection of 10 mM glycine, pH 1.8. To obtain kinetic rate constants double-referenced data were fit to a 1:1 interaction model using Biacore 8K Evaluation software (GE Healthcare). The equilibrium binding constant KD was determined by the ratio of binding rate constants kd/kₐ.
# (§2) The ability of anti-CD33 antibodies to recognize glycosylated CD33 was assayed. […] De-glycosylation status was confirmed by a shift on SDS-PAGE and MS.
Kd [nM],koff [s⁻¹],kon [M⁻¹ s⁻¹],binding result,Binder
0.98,0.00779,7.94e+06,,B1
63.8,0.0261,411000,,B2
2.65,0.00417,1.57e+06,,B3
200,,,,B4
0.11,0.00103,9.15e+06,,B5
12.3,0.012,978000,,B6
3.95,0.0269,6.8e+06,,B7
152,,,,B8
,,,no binding,B9
38.2,0.0701,1.88e+06,,B10

# Target: T2, V domain of human CD33 (human, UniProt P20138 18-139, limits assumed)
# T2 construct: recombinant, fully glycosylated V domain; also called Human CD33 V domain
# Assay: SPR, Fab captured, 37C
# Protocol: as §1, §2
Kd [nM],koff [s⁻¹],kon [M⁻¹ s⁻¹],Binder
1.14,0.00868,7.6e+06,B1
134,0.0151,112000,B2
3.2,0.00435,1.34e+06,B3
0.14,0.000916,6.75e+06,B5
5.56,0.005,905000,B6
4.5,0.0299,6.67e+06,B7
54.8,0.0857,1.56e+06,B10

# Target: T3, cyno CD33 extracellular domain (Cynomolgus/Rhesus (cyno))
# T3 construct: soluble monomeric ECD; also called cyno CD33 ECD
# Assay: SPR, Fab captured, 37C
# Protocol: as §1
# (§3) Affinity of 29 Fab fragments binding to human and cyno CD33 ECD were assayed by Biacore analysis.
Kd [nM],koff [s⁻¹],kon [M⁻¹ s⁻¹],binding result,Binder
6.86,0.0189,2.76e+06,,B1
,,,no binding (tested: 100 nM),B2
,,,no binding (tested: 100 nM),B3
,,,no binding (tested: 100 nM),B4
4.96,0.019,3.82e+06,,B5
74.9,0.0436,528000,,B6
27.8,0.0364,1.34e+06,,B7
,,,no binding (tested: 100 nM),B8
,,,no binding (tested: 100 nM),B9
21.4,0.00754,353000,,B10

# Target: T4, human CD33 extracellular domain (human, UniProt P20138 18-259)
# T4 construct: soluble monomeric ECD; also called human CD33 ECD; hCD33
# Assay: SPR, Fab captured, 37C
# Protocol: as §1, §3
Kd [nM],koff [s⁻¹],kon [M⁻¹ s⁻¹],Binder
0.53,0.00143,2.6e+06,B1
2.69,0.0076,2.82e+06,B2
3.14,0.00154,490000,B3
58.8,,,B4
0.02,5.65e-05,2.84e+06,B5
4.53,0.00195,429000,B6
2.75,0.00547,1.99e+06,B7
53.5,,,B8
1.23,0.000486,396000,B9
11.4,0.00636,558000,B10

# Target: T4, human CD33 extracellular domain
# Assay: SPR, Fab captured, 37C
# Remark: another data set of the same source
# Protocol: as §1
Kd [nM],koff [s⁻¹],kon [M⁻¹ s⁻¹],Binder
0.53,0.00143,2.6e+06,B1
2.69,0.0076,2.82e+06,B2
3.14,0.00154,490000,B3
58.8,,,B4
0.02,5.65e-05,2.84e+06,B5
4.53,0.00195,429000,B6
2.75,0.00547,1.99e+06,B7
53.5,,,B8
1.23,0.000486,396000,B9
11.4,0.00636,558000,B10

# Target: T2, V domain of human CD33
# Assay: SPR, Fab captured, 37C
# Remark: another data set of the same source
# Protocol: as §1
Kd [nM],koff [s⁻¹],kon [M⁻¹ s⁻¹],binding result,Binder
1.14,0.00868,7.6e+06,,B1
134,0.0151,112000,,B2
3.2,0.00435,1.34e+06,,B3
0.14,0.000916,6.75e+06,,B5
5.56,0.005,905000,,B6
4.5,0.0299,6.67e+06,,B7
,,,no binding,B9
54.8,0.0857,1.56e+06,,B10

# Target: T4, human CD33 extracellular domain
# Assay: SPR, Fab captured, 37C
# Remark: another data set of the same source
# Protocol: as §1, §3
Kd [nM],koff [s⁻¹],Binder
2.69,0.0076,B2
3.14,0.00154,B3
58.8,,B4
53.5,,B8
1.23,0.000486,B9

# Target: T4, human CD33 extracellular domain
# Assay: SPR, Fab captured, 37C
# Remark: another data set of the same source
# Protocol: as §1, §3
Kd [nM],koff [s⁻¹],kon [M⁻¹ s⁻¹],Binder
0.53,0.00143,2.6e+06,B1
2.69,0.0076,2.82e+06,B2
3.14,0.00154,490000,B3
58.8,,,B4
0.02,5.65e-05,2.84e+06,B5
4.53,0.00195,429000,B6
2.75,0.00547,1.99e+06,B7
53.5,,,B8
1.23,0.000486,396000,B9
11.4,0.00636,558000,B10

# Target: T5, C domain of human CD33 (human, UniProt P20138 140-259, limits assumed)
# T5 construct: recombinant C domain
# Assay: SPR, Fab captured, 37C
# Protocol: as §1
# The binding interface between the Fab fragment of each CD33 antibody to CD33 was mapped.
row,binding result,Binder
1,no binding,B1
2,no binding,B2
3,no binding,B3
4,no binding,B4
5,no binding,B5
6,no binding,B6
7,no binding,B7
8,no binding,B8
9,no binding,B9
10,no binding,B10
